Test results: patent publication US20040253243A1, “Aptamer therapeutics useful in ocular pharmacotherapy” (priority 2003, published 2004)
Strand notation (5' to 3'): a small letter for the sugar, then the base; units joined by * are phosphorothioate-linked, units joined directly phosphodiester-linked; [ ] holds rarer units or linkages, { } end groups; capitals alone tell only the bases. r = 2'-OH (RNA); f = 2'-fluoro

T1: TGFβ2 (Homo sapiens, UniProt P61812)
T1 construct: For bio-chemical characterization of these aptamers, two forms of mature TGFβ2 were generated, native and N-terminal his-tagged versions, in E. coli
T1 sequence (P61812 303-414 limits assumed): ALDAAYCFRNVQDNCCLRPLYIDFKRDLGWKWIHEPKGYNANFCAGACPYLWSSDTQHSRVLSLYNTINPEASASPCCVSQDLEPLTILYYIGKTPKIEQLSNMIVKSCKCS


Experiments:
TGFβ2 [1] = target: T1, TGFβ2; assay: Binding data as performed in MLEC inhibition assay CW115-95, 117, 129; assay type: cell-based; settings: full-length aptamer sequences; experiment 129
Method: MLEC Assay. The mink lung epithelial cell proliferation assay is performed over two days. On day 1:1) media is aspirated off from Mink Lung Epithelial Cells (MLEC); 2) the MLEC are washed with 10 ml 1×PBS; 3) 3 ml Trypsin is added and Trypsinize for 3 min at 37° C.; 4) quench with 10 ml 0.5% FBS media; 5) spin at 1000 rpm for 3.30 min; 6) aspirate off supernatant; 7) resuspend pellet in 10 ml 0.5% FBS media; 8) Count 10 μl cell suspension; 9) adjust cell density to 80,000 cells/ml; 10) add 50 μl of cells/well to black bottomed 96-well plates (4000 cells/well); pipet up and down during plating process to avoid settling of cells and uneven plating; 11) incubate cells at 37° C. in 5% CO2 for 4 hrs to allow adherence of cells; 12) add 25 μl of aptamer (or media, or other test reagent, such as for example, an antibody), preferably the outer wells are not used for treated cells; 13) add 25 μl of TGFβ2 (typically 25 pg/ml); and 14) incubate cells at 37° C. in 5% CO2 overnight.
On day 2:1) mix 20 μl BrdU with 2 ml 0.5% FBS media; 2) add 10 μl of BrdU mixture/well; 3) incubate cells at 37° C. in 5% CO2 for 3 hrs; 4) remove media and blot plates dry on paper towels; 5) add 200 μl/well FixDenat solution and incubate for 30 min at room temperature (RT); 6) remove FixDenat solution and blot plates dry on paper towels; 7) add 100 μl /well anti-BrdU POD solution and incubate for 90 min at RT; 8) remove anti-BrdU POD solution and blot plates dry on paper towels; 9) wash plates 3× with […] washing solution with 5 min RT incubations and blot plates dry on paper towels; 10) add 100 μl /well substrate solution and incubate for 3 min at RT in dark; and 11) read plates using PSP Luciferace 1 program on TopCount (Packard Bioscience Co., Downers Grove, Ill.).

TGFβ2 [2] = target: T1, TGFβ2; assay: Dot blot binding of doped reselection aptamers to TGFβ2; settings: CW128_103
Method: TGFβ2 was serially diluted in DPBS containing 0.2 mg/ml BSA and 0.2 mg/ml tRNA. ^32P-labeled RNA (<20 pM) were incubated with TGFβ2 at room temperature for 30 min. Samples were pipetted with a multichannel pippetor onto a multiwell manifold holding layers of pre-wetted 0.45 micron nitrocellulose, hybond membrane, 3MM filter paper (the order is from top to bottom), aspirated, and washed 3× with DPBS (containing tRNA). All three filters were air dried, exposed to phosphorimager plate, analyzed by ImageQuant.

Molecule | IC50 (TGFβ2 [1]) | Kd (TGFβ2 [2])
GGGAGGACGAUGCGGGACAGAGUAUUAUAGAGUAUGUAUAGCUAUACUGUCAGACGACUCGCCCGA (nucleic acid, aptamer) rGrGrGrArGrGrAfCrGrAfUrGfCrGrGrGrAfCrArGrArGfUrAfUfUrAfUrArGrArGfUrAfUrGfUrAfUrArGfCfUrAfUrAfCfUrGfUfCrArGrAfCrGrAfCfUfCrGfCfCfCrGrA | 12.1 nM | 
GGGAGGACGAUGCGGUGAGAGUAUUAUAGAGUCUGUAUAGCUAUACCACCAGACGACUCGCCCGA (nucleic acid, aptamer) rGrGrGrArGrGrAfCrGrAfUrGfCrGrGfUrGrArGrArGfUrAfUfUrAfUrArGrArGfUfCfUrGfUrAfUrArGfCfUrAfUrAfCfCrAfCfCrArGrAfCrGrAfCfUfCrGfCfCfCrGrA | 8 nM | 
GGGAGGACGAUGCGGACAGAGUAUUAUAGAGUAUGUAUAGCUAUACUGUCAGACGACUCGCCCGA (nucleic acid, aptamer) rGrGrGrArGrGrAfCrGrAfUrGfCrGrGrAfCrArGrArGfUrAfUfUrAfUrArGrArGfUrAfUrGfUrAfUrArGfCfUrAfUrAfCfUrGfUfCrArGrAfCrGrAfCfUfCrGfCfCfCrGrA | 14.5 nM | 
GGGAGGACGAUGCGGAGGGAUUAUUAUAGAGUCUGUAUAGCUAUACCCUCAGACGACUCGCCCGA (nucleic acid, aptamer) rGrGrGrArGrGrAfCrGrAfUrGfCrGrGrArGrGrGrAfUfUrAfUfUrAfUrArGrArGfUfCfUrGfUrAfUrArGfCfUrAfUrAfCfCfCfUfCrArGrAfCrGrAfCfUfCrGfCfCfCrGrA | 5.3 nM | 
GGGAGGACGAUGCGGGGAGGUUAUUACAGAGUCUGUAUAGCUGUACUCCCAGACGACUCGCCCGA (nucleic acid) rGrGrGrArGrGrAfCrGrAfUrGfCrGrGrGrGrArGrGfUfUrAfUfUrAfCrArGrArGfUfCfUrGfUrAfUrArGfCfUrGfUrAfCfUfCfCfCrArGrAfCrGrAfCfUfCrGfCfCfCrGrA |  | 0.75 nM
GGGAGGACGAUGCGGACAGAGUAUUAUAGAGUAUGUAUAGCUAUACUGUCCAGACGACUCGCCCGA (nucleic acid, aptamer) rGrGrGrArGrGrAfCrGrAfUrGfCrGrGrAfCrArGrArGfUrAfUfUrAfUrArGrArGfUrAfUrGfUrAfUrArGfCfUrAfUrAfCfUrGfUfCfCrArGrAfCrGrAfCfUfCrGfCfCfCrGrA | 5.2 nM | 0.53 nM
GGGAGGACGAUGCGGAUAGAGUAUUAUAGAGUAUGUAUAGCUAUACUAUCAGACGACUCGCCCGA (nucleic acid, aptamer) rGrGrGrArGrGrAfCrGrAfUrGfCrGrGrAfUrArGrArGfUrAfUfUrAfUrArGrArGfUrAfUrGfUrAfUrArGfCfUrAfUrAfCfUrAfUfCrArGrAfCrGrAfCfUfCrGfCfCfCrGrA | 17.9 nM | 
GGGAGGACGAUGCGGUGAGAGUAUUAUAGAGUCUGUAUAGCUAUACUCGCCAGACGACUCGCCCGA (nucleic acid, aptamer) rGrGrGrArGrGrAfCrGrAfUrGfCrGrGfUrGrArGrArGfUrAfUfUrAfUrArGrArGfUfCfUrGfUrAfUrArGfCfUrAfUrAfCfUfCrGfCfCrArGrAfCrGrAfCfUfCrGfCfCfCrGrA | 6.5 nM | 
GGGAGGACGAUGCGGUGUGAGUAUUAUAGAGUCUGUAUAGCUAUACCACCAGACGACUCGCCCGA (nucleic acid, aptamer) rGrGrGrArGrGrAfCrGrAfUrGfCrGrGfUrGfUrGrArGfUrAfUfUrAfUrArGrArGfUfCfUrGfUrAfUrArGfCfUrAfUrAfCfCrAfCfCrArGrAfCrGrAfCfUfCrGfCfCfCrGrA | 7.4 nM | 
